Laboratory results: patent US10028997B2, “Systems and methods for attracting and trapping brain cancer cells” (GEISINGER HEALTH SYSTEM, priority 2014, dated 2018)

B1: lipocalin-2 (protein, listed as Homo sapiens)
chain: MPLGLLWLGLALLGALHAQAQDSTSDLIPAPPLSKVPLQQNFQDNQFQGKWYVVGLAGNAILREDKDPQKMYATIYELKEDKSYNVTSVLFRKKKCDYWIRTFVPGCQPGEFTLGNIKSYPGLTSYLVRVVSTNYNQHAMVFFKKVSQNREYFKITLYGRTKELTSELKENFIRFSKSLGLPENHIVFPVPIDQCIDG
notes: member of the lipocalin family, a 23 kDa hydrophilic protein
B2: denatured Lcn2: Lcn2 denatured by boiling in SDS buffer for 10 minutes (protein)
chain: QDSTSDLIPAPPLSKVPLQQNFQDNQFQGKWYVVGLAGNAILREDKDPQKMYATIYELKEDKSYNVTSVLFRKKKCDYWIRTFVPGCQPGEFTLGNIKSYPGLTSYLVRVVSTNYNQHAMVFFKKVSQNREYFKITLYGRTKELTSELKENFIRFSKSLGLPENHIVFPVPIDQCIDG

Columns and labels:
Format in all cases: cell-based
[1] = system: human glioblastoma stem cells (hGSCs); assay: Chemotaxis assay plate, linear Lcn2 gradient; settings: linear gradient of 10 μg/ml Lcn2 for 8 hours, FIGS. 4A-C
human glioblastoma cells = assay: XCELLIGENCE migration after Lcn2 pre-treatment of glioblastoma cells; settings: pre-treated with 10 μg/ml Lcn2 for 24 hours; p<0.0001; FIGS. 2B and 2C
Description: To further determine the effect of Lcn2 on glioblastoma cell migration, glioblastoma cells were first pre-treated with 10 μg/ml Lcn2 for 24 hours. Migration was subsequently quantified using the XCELLIGENCE system in the presence or absence of Lcn2 as a chemo-attractant in the lower Boyden chamber.

[2] = system: human glioblastoma stem cells (hGSCs); assay: Boyden chamber migration, crystal violet staining and microscope cell count; settings: for hGSC migration (cells counted in bottom chamber): 10 μg/ml in bottom chamber, 16 hours, serum free medium, p<0.0001, FIGS. 3B and 3C
Description: Finally, human glioblastoma cell migration was also observed under the microscope. hGSCs were seeded in the upper Boyden chamber in serum free medium. Lcn2 was added to the bottom chamber at 10 μg/ml and cells were allowed to migrate for 16 hours. The bottom chamber was fixed and stained with crystal violet and cells were counted using a Zeiss Phase Contrast microscope at 10× magnification. […] To show the specificity of the Lcn2 chemotactic effect and to determine if the effect of Lcn2 on migration is […], Lcn2 was denatured by boiling in SDS buffer for 10 minutes and then added to the bottom Boyden chamber.

[3] = system: human glioblastoma stem cells (hGSCs); assay: XCELLIGENCE RTCA CIM-16 (Boyden chamber) migration of hGSCs, Lcn2 in lower chamber
Description: Human glioblastoma stem cells (hGSCs) were seeded in an XCELLIGENCE RTCA CIM-16 plate, which functions as a Boyden chamber, in serum-free media. The XCELLIGENCE system (ACEA BIOSCIENCES, INC.) measures total surface area covered by cell membrane by detecting the electrical impedance, using microelectronic biosensor technology (Ness et al., NATURE COMMUNICATIONS 4:1912 (2013)). The lower chamber was supplemented with 10 μg/ml Lcn2 or 10% serum. Cell migration from the upper to the lower chamber was measured and plotted over time and the migration slope was calculated using RTCA DP software (ACEA BIOSCIENCES, INC.). The experiment was repeated four times and the results are presented as average+/−standard deviation.

Molecule | migration towards the opposite direction (chemokinesis) [1] | migration toward the linear Lcn2 gradient (chemotaxis) ([1]; p<0.005) | migration after pre-treatment with Lcn2 (human glioblastoma cells) | hGSC migration (cells counted in bottom chamber) [2] | rate of migration of hGSCs, lipocalin-2 in one chamber versus PBS in one chamber or lipocalin-2 in both chambers ([2]; FIGS. 3B, 3C) | migration of hGSCs from upper to lower chamber ([3]; 10 μg/ml Lcn2 in lower chamber vs 10% serum, serum-free media, FIG. 2A) | attraction of hGSCs toward the bottom chamber containing the Lcn2 depot ([3]; 10 μg/ml Lcn2 in lower chamber, FIG. 3A)
B1 | no difference in migration towards the opposite direction | increased migration toward the linear Lcn2 gradient | induced a significant increase in migration | a significant increase in hGSC migration was observed | increases the rate of migration of human glioblastoma stem cells (hGSCs) to the lipocalin-2-containing chamber | increases the migration of hGSCs as compared to serum alone | significantly attracts hGSCs toward the bottom chamber
B2 | – | – | – | No effect on hGSC migration was observed | – | – | –
